Experimental data as given in PMC4518479, “Rad51 Paralogs Remodel Pre-synaptic Rad51 Filaments to Stimulate Homologous Recombination” (Cell, 2015).

Experiments:
[1] = target: T1, FLAG-tagged RIP-1 co-expressed with RFS-1 in budding yeast (C. elegans, UniProt Q21621 1-209); assay: SEC; 3 ml Superdex 75 5/150 GL column loaded with 30 ul RFS-1/RIP-1 from single-step FLAG immunoprecipitation; size from molecular weight markers; settings: both partners purified
T1 construct: RIP-1 of C. elegans (R01H10.5); also called RIP-1-FLAG; source: budding yeast, co-expressed with RFS-1, in extract; purified by FLAG immunoprecipitation; not shown: FLAG, C-terminal, kept
T1 sequence (looked up): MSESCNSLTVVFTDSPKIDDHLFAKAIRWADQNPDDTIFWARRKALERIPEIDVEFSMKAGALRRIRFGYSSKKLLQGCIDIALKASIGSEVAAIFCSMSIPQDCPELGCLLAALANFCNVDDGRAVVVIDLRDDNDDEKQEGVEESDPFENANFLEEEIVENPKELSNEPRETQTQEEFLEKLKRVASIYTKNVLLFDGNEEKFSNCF

RFS-1/RIP-1 [2] = target: T2, RFS-1/RIP-1 (Caenorhabditis elegans, UniProt P34348;Q21621 1-245;1-209); assay: EMSA; weak binding; nucleotide independent; EMSA: 20 mM triethanolamine-HCl pH 7.5, 8% glycerol, 1 mM DTT, 50 mM sodium acetate, 2 mM MgCl2 + 2 mM nucleotide (or 10 mM EDTA), 100 nM (nt) DNA, 25 °C; settings: protein: recombinant; copies: 1;1; label: 5'-32P or 5'-fluorescein
T2 sequence 1: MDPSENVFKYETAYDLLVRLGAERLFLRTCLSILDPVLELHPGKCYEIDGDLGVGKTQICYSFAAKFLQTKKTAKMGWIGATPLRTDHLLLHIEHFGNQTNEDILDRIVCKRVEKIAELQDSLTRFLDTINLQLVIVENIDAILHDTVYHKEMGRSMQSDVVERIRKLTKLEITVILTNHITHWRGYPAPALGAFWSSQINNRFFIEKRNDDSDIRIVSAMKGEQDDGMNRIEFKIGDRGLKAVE
T2 sequence 2: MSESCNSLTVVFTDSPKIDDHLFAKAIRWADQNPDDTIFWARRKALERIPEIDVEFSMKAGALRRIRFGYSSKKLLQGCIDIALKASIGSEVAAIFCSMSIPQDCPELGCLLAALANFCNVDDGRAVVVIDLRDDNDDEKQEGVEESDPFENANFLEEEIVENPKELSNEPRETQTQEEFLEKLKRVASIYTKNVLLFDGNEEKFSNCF

[3] = target: T3, RAD-51;RFS-1(E138A)/RIP-1 (Caenorhabditis elegans;Caenorhabditis …, UniProt Q7K7I8;P34348;Q21621 1-357;1-245;1-209, |E138A); assay: EMSA; ATP; filament binding similar to wild type; EMSA: 20 mM triethanolamine-HCl pH 7.5, 8% glycerol, 1 mM DTT, 50 mM sodium acetate, 2 mM MgCl2 + 2 mM nucleotide (or 10 mM EDTA), 100 nM (nt) DNA, 25 °C; settings: protein: recombinant;recombinant; tags: none (His-SUMO tag cleaved);3xFLAG at RIP-1 C-terminus; label: 5'-32P or 5'-fluorescein
T3 sequence 1: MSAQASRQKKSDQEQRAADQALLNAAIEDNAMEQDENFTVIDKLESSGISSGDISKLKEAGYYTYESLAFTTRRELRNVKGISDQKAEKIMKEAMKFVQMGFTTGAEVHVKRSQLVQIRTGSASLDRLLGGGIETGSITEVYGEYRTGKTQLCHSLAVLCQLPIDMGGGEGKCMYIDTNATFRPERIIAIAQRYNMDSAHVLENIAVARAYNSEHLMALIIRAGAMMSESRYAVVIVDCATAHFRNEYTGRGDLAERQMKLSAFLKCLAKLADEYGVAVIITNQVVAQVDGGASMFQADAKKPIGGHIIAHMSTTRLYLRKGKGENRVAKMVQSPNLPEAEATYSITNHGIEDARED
T3 sequence 2: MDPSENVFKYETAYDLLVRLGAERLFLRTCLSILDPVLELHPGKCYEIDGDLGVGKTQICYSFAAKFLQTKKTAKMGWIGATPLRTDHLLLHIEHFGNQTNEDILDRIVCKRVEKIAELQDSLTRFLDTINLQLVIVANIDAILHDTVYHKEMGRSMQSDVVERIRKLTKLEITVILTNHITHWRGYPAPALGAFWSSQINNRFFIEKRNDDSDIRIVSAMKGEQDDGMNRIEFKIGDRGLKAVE
T3 sequence 3: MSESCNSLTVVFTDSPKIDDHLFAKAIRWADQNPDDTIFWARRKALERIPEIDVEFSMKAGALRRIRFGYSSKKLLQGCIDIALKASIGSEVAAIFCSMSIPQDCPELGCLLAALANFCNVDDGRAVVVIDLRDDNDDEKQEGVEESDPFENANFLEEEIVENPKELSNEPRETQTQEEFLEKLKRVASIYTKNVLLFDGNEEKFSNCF

RAD-51;RFS-1(K56A)/RIP-1 = target: T4, RAD-51;RFS-1(K56A)/RIP-1 (Caenorhabditis elegans;Caenorhabditis …, UniProt Q7K7I8;P34348;Q21621 1-357;1-245;1-209, |K56A); assay: as above; settings: protein: recombinant;recombinant; tags: none (His-SUMO tag cleaved);3xFLAG at RIP-1 C-terminus; label: 5'-32P or 5'-fluorescein
T4 sequence 1: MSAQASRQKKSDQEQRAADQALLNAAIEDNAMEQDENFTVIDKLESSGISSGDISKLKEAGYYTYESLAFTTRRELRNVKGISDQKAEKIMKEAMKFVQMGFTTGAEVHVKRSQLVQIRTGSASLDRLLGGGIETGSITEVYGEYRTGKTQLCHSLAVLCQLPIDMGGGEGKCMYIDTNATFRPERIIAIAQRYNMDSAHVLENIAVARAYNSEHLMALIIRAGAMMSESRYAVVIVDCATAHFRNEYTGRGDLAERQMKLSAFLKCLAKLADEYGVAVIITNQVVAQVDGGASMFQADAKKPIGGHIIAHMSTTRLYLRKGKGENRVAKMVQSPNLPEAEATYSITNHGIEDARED
T4 sequence 2: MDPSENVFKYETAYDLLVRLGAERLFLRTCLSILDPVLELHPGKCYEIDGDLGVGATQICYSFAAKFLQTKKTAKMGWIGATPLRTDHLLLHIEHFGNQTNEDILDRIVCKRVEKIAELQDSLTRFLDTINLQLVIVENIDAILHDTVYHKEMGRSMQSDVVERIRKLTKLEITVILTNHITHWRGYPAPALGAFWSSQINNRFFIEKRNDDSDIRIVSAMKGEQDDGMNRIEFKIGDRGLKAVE
T4 sequence 3: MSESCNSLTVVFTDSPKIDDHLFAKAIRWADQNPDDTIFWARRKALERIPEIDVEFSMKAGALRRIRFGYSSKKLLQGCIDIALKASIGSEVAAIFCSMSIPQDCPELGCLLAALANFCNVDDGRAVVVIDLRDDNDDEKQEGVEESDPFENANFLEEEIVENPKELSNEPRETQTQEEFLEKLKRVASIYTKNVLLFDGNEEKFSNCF

RFS-1(K56A)/RIP-1 = target: T5, RFS-1(K56A)/RIP-1 (Caenorhabditis elegans, UniProt P34348;Q21621 1-245;1-209, K56A); assay: EMSA; increased ssDNA affinity relative to wild type; EMSA: 20 mM triethanolamine-HCl pH 7.5, 8% glycerol, 1 mM DTT, 50 mM sodium acetate, 2 mM MgCl2 + 2 mM nucleotide (or 10 mM EDTA), 100 nM (nt) DNA, 25 °C; settings: protein: recombinant; tags: 3xFLAG at RIP-1 C-terminus; copies: 1;1; label: 5'-32P or 5'-fluorescein
T5 sequence 1: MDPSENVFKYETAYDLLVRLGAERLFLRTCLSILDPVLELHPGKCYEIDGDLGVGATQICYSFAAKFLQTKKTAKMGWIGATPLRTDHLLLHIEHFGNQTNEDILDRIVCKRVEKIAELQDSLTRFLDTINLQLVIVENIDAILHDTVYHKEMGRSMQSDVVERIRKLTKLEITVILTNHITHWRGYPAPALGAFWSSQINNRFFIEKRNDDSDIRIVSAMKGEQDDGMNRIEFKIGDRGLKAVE
T5 sequence 2: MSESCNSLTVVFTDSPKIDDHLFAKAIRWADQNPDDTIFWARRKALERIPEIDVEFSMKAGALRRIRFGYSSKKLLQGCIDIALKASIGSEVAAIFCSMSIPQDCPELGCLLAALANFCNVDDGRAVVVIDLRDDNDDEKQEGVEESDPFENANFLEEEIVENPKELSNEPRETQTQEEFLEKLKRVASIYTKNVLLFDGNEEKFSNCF

RFS-1(E138A)/RIP-1 = target: T6, RFS-1(E138A)/RIP-1 (Caenorhabditis elegans, UniProt P34348;Q21621 1-245;1-209, E138A); assay: as above; settings: protein: recombinant; tags: 3xFLAG at RIP-1 C-terminus; copies: 1;1; label: 5'-32P or 5'-fluorescein
T6 sequence 1: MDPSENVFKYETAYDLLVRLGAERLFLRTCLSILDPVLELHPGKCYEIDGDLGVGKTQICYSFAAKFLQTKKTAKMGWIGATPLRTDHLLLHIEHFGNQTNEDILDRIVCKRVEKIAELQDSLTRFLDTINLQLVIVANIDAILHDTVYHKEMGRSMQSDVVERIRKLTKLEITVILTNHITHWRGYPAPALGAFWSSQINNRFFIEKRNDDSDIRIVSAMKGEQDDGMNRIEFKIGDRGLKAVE
T6 sequence 2: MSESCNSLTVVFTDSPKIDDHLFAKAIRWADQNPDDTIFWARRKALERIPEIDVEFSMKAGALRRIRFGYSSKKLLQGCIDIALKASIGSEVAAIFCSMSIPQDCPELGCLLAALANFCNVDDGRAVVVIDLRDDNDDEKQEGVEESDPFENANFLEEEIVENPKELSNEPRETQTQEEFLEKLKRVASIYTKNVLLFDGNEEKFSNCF

RAD-51;RFS-1/RIP-1 = target: T7, RAD-51;RFS-1/RIP-1 (Caenorhabditis elegans;Caenorhabditis …, UniProt Q7K7I8;P34348;Q21621 1-357;1-245;1-209, |); assay: EMSA with anti-FLAG immuno-shift; ATP; RFS-1/RIP-1 bound to RAD-51 filament; EMSA: 20 mM triethanolamine-HCl pH 7.5, 8% glycerol, 1 mM DTT, 50 mM sodium acetate, 2 mM MgCl2 + 2 mM nucleotide (or 10 mM EDTA), 100 nM (nt) DNA, 25 °C; settings: protein: recombinant;recombinant; label: 5'-32P or 5'-fluorescein
T7 sequence 1: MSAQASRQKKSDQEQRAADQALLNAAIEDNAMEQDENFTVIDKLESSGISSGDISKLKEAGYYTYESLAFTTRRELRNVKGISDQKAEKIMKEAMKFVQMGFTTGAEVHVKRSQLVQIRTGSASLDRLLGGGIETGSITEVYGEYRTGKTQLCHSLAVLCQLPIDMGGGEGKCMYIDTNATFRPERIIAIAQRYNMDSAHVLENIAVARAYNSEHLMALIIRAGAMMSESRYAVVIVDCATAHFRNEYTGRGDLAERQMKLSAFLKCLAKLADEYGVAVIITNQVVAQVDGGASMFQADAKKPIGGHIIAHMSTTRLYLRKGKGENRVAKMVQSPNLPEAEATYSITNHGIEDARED
T7 sequence 2: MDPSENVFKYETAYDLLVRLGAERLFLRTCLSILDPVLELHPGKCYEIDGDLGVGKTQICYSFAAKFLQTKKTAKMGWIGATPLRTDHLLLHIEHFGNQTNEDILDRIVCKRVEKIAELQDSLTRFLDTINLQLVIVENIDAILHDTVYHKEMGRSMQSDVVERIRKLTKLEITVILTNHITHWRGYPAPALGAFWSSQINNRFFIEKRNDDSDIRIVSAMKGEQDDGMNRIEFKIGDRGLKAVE
T7 sequence 3: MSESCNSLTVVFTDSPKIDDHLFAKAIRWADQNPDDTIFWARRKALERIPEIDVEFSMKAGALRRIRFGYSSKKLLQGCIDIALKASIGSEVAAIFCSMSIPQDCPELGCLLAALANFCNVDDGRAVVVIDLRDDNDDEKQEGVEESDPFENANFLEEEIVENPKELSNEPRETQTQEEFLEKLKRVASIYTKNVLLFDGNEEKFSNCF

RFS-1/RIP-1 [4] = target: T2, RFS-1/RIP-1; assay: EMSA; EMSA: 20 mM triethanolamine-HCl pH 7.5, 8% glycerol, 1 mM DTT, 50 mM sodium acetate, 2 mM MgCl2 + 2 mM nucleotide (or 10 mM EDTA), 100 nM (nt) DNA, 25 °C; settings: protein: recombinant; copies: 1;1; label: 5'-32P; blunt

B1: RFS-1 co-expressed with RIP-1 in budding yeast (natural protein, C. elegans, UniProt P34348 1-245, looked up)
chain: MDPSENVFKYETAYDLLVRLGAERLFLRTCLSILDPVLELHPGKCYEIDGDLGVGKTQICYSFAAKFLQTKKTAKMGWIGATPLRTDHLLLHIEHFGNQTNEDILDRIVCKRVEKIAELQDSLTRFLDTINLQLVIVENIDAILHDTVYHKEMGRSMQSDVVERIRKLTKLEITVILTNHITHWRGYPAPALGAFWSSQINNRFFIEKRNDDSDIRIVSAMKGEQDDGMNRIEFKIGDRGLKAVE
notes: RFS-1 of C. elegans; see Supplemental Experimental Procedures; also called recombinant RFS-1; source: budding yeast, co-expressed with RIP-1, in extract; co-purified by FLAG immunoprecipitation
With B1 the “stoichiometry N” value [1] was 1.

B2: 60-mer ssDNA (ssDNA)
DNA: ACGCTGCCGAATTCTACCAGTGCCTTGCTAGGACATCTTTGCCCACCTGCAGGTTCACCC
B2: binds (RFS-1/RIP-1 [2]); binds [3]; binds (RAD-51;RFS-1(K56A)/RIP-1). B2: binds (RFS-1(K56A)/RIP-1); binds (RFS-1(E138A)/RIP-1); binds (RAD-51;RFS-1/RIP-1).

B3: 60-mer dsDNA (dsDNA)
DNA 1: ACGCTGCCGAATTCTACCAGTGCCTTGCTAGGACATCTTTGCCCACCTGCAGGTTCACCC
DNA 2: GGGTGAACCTGCAGGTGGGCAAAGATGTCCTAGCAAGGCACTGGTAGAATTCGGCAGCGT
B3: no binding (RFS-1/RIP-1 [4]).
